Data published in patent US20230115785, “ANALYTE DETECTION” (University of Leeds, published 2023).

Assays:
Details in all cases: chain copies: 5 (pentamer, stated)
[1] = biological target: T1, C-reactive protein (CRP, pentamer) (Homo sapiens, UniProt P02741 P02741:19-224); assay: SPR; amine-anchored extended aptamer; slower kinetics than aptamer 1; similar carrier sensing results (p217)
T1 sequence: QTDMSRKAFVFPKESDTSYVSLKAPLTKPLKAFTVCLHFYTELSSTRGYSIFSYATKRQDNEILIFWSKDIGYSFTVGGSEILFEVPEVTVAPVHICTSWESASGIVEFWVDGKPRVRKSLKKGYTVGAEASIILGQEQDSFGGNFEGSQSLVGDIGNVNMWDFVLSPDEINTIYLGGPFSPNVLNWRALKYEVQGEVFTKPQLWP
Procedure: (§1) Aptamer-protein binding studies were carried out via an ESPRIT SPR instrument from Metrohm Autolab B.V (Utrecht, The Netherlands). For this, the end-modified aptamers attached with an amine group were anchored onto the gold SPR surface functionalized with a self-assembled monolayer (SAM) of C11PEG6COOH via EDC (1-ethyl-3-(3-dimethylaminopropyl) carbodiimide) NHS (N-hydroxysuccinimide) coupling chemistry. The gold SPR surface from XanTec bioanalytics was cleaned by sonication twice in acetone for 10 minutes and then immersed in an ethanolic 1 mM SAM solution containing 5% acetic acid and allowed to stand at room temperature for 48 hours. Following the incubation, the surface was rinsed with 100% ethanol, quickly dried with nitrogen and was mounted on the SPR system. To attach the DNA aptamers to the gold surface, the COOH-terminated SAM surface was activated with 50 mM EDC and 200 mM NHS in 100 mM MES buffer at pH5.5 for around 15 min. The surface was washed with the MES buffer, followed by a 30-minute incubation with 5 μM of DNA aptamer in 10 mM sodium acetate buffer at pH5.5. Any remaining activated COOH sites were quenched by exposing the surface to 100 mM ethanolamine in water for around 10 min. […] The binding was measured as the change in resonance angle.

[2] = biological target: T1, C-reactive protein (CRP, pentamer); assay: SPR; amine-anchored extended aptamer; 10 mM TrisAc, 10 mM MgAc, 2 mM CaCl2, 1 mM EDTA; faster kinetics than aptamer 2
Procedure: as §1

[3] = biological target: T1, C-reactive protein (CRP, pentamer); assay: nanopipette translocation; carrier 9 nM, CRP 90 nM; no single peaks
Procedure: For the translocation experiments the nanopipettes with the working electrode were filled with the translocation buffer (0.1 M KCl with 10 mM TrisAc, 10 mM MgAc, 2 mM CaCl₂) and 1 mM EDTA) containing the DNA origami and analyte where applicable at a final concentration of 500 pM. The Mg is required to maintain the stability of the DNA origami, and the Ca to match the buffer conditions used to select the DNA aptamers employed as binding moieties. The grounded counter electrode was immersed in a 0.1 M KCl solution completing the circuit. […] Measurements were recorded using the Axopatch 700b amplifier, and the data were acquired at a rate of 100 kHz and 20 kHz low pass filtered. […]
To investigate the specificity of our sensing system, and in particular of the carriers to the CRP target, a random DNA sequence was selected to act as a non-specific aptamer and the translocation ion current was measured for carrier concentration of 9 nM and CRP concentration of 90 nM, i.e. the highest concentration reported in FIG. 6. A single distribution of peak amplitudes and dwell times with averages of 69±5 pA and […], respectively, were found, consistent with the values measured with unoccupied carriers.

B1: hCRP aptamer 2 (ssDNA)
DNA: CGAAGGGGATTCGAGGGGTGATTGCGTGCTCCATTTGGTGTTTTTTTTTTTTGCAAGGATAAAAATTT
modifications: 3'-NH2
Does B1 bind [1]?
Result: binds

B2: hCRP aptamer 1 (ssDNA)
DNA: AAGCCTTTATTTCAACGGCAGGAAGACAAACACGATGGGGGGGTATGATTTGATGTGGTTGTTGCATGATCGTGGTCTGTGGTGCTGT
modifications: 5'-NH2
Does B2 bind [2]?
Result: binds

B3: Nonspecific random aptamer (ssDNA)
DNA: CTGAACAAGAAAAATAGCAGAACTTACGAGCCAGGGGAAACAGTAAGGCCTAATTAGGTAAAGGAGTAAGTGCTCGAACGCTTCAGA
modifications: 5'-NH2
Does B3 bind [3]?
Result: no binding
